Holding throughout (test): purified protein
Holding throughout (details): co-substrate NAD+

Data set [1] has as its system Nc1nc2c(ncn2[C@@H]2O[C@H](COP(=O)(O)OP(=O)(O)O[C@H]3O[C@H](CO)[C@@H](O)[C@H](O)[C@@H]3F)[C@@H](O)[C@H]2F)c(=O)[nH]1.
Data set [2] concerns Nc1nc2c(ncn2[C@@H]2O[C@H](COP(=O)(O)OP(=O)(O)O[C@H]3O[C@H](CO)[C@@H](O)[C@H](O)[C@@H]3F)[C@@H](O)[C@H]2O)c(=O)[nH]1.
In data set [3] the test system is Nc1nc2c(ncn2[C@@H]2O[C@H](COP(=O)(O)OP(=O)(O)O[C@H]3O[C@H](CO)[C@@H](O)[C@H](O)[C@@H]3O)[C@@H](O)[C@H]2F)c(=O)[nH]1.
Data set [4] has as its system Nc1nc2c(ncn2[C@@H]2O[C@H](COP(=O)(O)OP(=O)(O)O[C@H]3O[C@H](CO)[C@@H](O)[C@H](O)[C@@H]3O)[C@@H](O)[C@H]2O)c(=O)[nH]1.

Take “GDP-mannose dehydrogenase (GMD; PaGMD) (Pseudomonas aeruginosa PAO1)”: the Km worked out at 87.72 ± 5.82 µM in data set [1], 134.29 ± 12.78 µM in data set [2], 20.95 ± 0.83 µM in data set [3] and 18.18 ± 3.82 µM in data set [4]. Further, the kcat in data set [1] was found to be 0.0407 ± 0.0012 s⁻¹; in data set [2] it was 0.0655 ± 0.00267 s⁻¹; in data set [3], 0.0507 ± 0.00067 s⁻¹; in data set [4], 0.0427 ± 0.00333 s⁻¹.

In general, Km refers to the concentration of substrate that gives half-maximal velocity. What is called kcat is the maximal rate divided by the concentration of active sites.

The values above are taken from paper PMC12381709, “Fluorinating the Sugar and the Nucleotide: Exploring Fluorination Within GDP-Mannose Probes Using Chemoenzymatic Synthesis” (JACS Au, 2025).
